Results: patent publication EP4725969A1 (Latticon (Suzhou) Biopharmaceuticals Co., Ltd., dated 2024)

Experiments:
FcγRIIIa (176F) = FcγRIIIa (176F) (UniProt P08637 17-208); test: BLI (ForteBio)
FcγRI = molecular target: T1, FcγRI (UniProt P12314 16-288, limits assumed); test: BLI (ForteBio)
T1 construct: also called CD64

FcγRIIa (167H) = molecular target: T2, FcγRIIa (167H) (UniProt P12318 36-218, limits assumed); test: BLI (ForteBio)
T2 sequence (looked up): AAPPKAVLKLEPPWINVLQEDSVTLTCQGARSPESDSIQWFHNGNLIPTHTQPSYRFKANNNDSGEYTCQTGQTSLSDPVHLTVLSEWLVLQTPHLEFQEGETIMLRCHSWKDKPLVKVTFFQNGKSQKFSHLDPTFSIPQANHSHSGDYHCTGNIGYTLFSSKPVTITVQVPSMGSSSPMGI

FcγRIIIa (176V) = FcγRIIIa (176V) (UniProt P08637 17-208, limits assumed); test: BLI (ForteBio)
Chain of FcγRIIIa (176V) (P08637 17-208 F176V limits assumed): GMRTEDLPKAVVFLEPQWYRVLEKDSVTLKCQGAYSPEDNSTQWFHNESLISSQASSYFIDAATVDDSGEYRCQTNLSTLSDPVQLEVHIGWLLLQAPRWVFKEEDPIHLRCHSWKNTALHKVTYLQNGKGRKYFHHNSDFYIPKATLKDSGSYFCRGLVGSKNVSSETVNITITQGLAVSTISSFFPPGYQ

[1] = molecular target: T3, recombinant human EGFR extracellular domain (human, UniProt P00533 25-645); test: ELISA, coated EGFR ECD
T3 construct: extracellular domain

[2] = molecular target: T4, recombinant human HER3 extracellular domain (human, UniProt P21860 20-643); test: ELISA, coated HER3 ECD
T4 construct: extracellular domain

[3] = molecular target: T5, recombinant human HER4 extracellular domain (human, UniProt Q15303 26-651); test: ELISA, coated HER4 ECD
T5 construct: extracellular domain
T5 sequence (looked up): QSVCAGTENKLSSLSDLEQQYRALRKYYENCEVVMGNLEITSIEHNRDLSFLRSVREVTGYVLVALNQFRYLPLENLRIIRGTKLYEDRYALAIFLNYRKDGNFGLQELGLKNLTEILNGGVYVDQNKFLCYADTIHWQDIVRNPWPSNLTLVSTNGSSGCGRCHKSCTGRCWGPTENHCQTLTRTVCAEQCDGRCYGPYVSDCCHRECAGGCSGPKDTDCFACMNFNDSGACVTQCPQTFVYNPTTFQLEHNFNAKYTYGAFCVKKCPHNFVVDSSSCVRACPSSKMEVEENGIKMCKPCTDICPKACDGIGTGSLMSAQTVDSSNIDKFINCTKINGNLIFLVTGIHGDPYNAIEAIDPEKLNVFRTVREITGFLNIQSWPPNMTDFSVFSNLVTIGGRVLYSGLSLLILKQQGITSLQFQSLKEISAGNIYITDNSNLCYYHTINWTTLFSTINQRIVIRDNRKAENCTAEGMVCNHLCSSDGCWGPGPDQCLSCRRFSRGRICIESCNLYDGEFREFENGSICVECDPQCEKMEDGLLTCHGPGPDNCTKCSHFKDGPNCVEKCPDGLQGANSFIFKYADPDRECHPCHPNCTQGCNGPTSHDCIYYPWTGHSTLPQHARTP

Measured: binding result

T1 sequence (P12314 16-288 limits assumed): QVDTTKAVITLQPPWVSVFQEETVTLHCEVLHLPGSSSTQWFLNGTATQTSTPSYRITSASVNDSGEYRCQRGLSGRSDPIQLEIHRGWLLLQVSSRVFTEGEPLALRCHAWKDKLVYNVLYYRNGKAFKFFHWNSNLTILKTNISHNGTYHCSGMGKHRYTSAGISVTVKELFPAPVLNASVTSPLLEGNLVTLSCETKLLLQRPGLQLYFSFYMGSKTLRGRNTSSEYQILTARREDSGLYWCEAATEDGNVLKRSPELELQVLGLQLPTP
Chain of FcγRIIIa (176F) (P08637 17-208 limits assumed): as the sequence (P08637 17-208 F176V limits assumed) above, with V160F counted along it

B1: 04BS-1123-ST06 (bispecific antibody)
heavy: QVQLVESGGGLVQPGGSLRLSCAASGFTYSSYGMSWVRQAPGKGLEWVASISGGGSYTKYVDKVKGRFTISRDNSKNTLYLQMNSLRAEDTAVYYCARDYVGFFDVWGQGTLVTVSSGGGGSQVQLVQSGSELKKPGASVKVSCKASGYTFTDYSMHWVRQAPGQGLEWMGWINTGTGEPTYADDFKGRFTISRDTSKSTAYLQISSLKAEDTAVYYCVRVGRYDYAMDYWGQGTTVTVSSASTKGPSVFPLAPSSKSTSGGTAALGCLVKDYFPEPVTVSWNSGALTSGVHTFPAVLQSSGLYSLSSVVTVPSSSLGTQTYICNVNHKPSNTKVDKRVEPKSCDKTHTCPPCPAPEFEGGPSVFLFPPKPKDTLMISRTPEVTCVVVDVSHEDPEVKFNWYVDGVEVHNAKTKPREEQYNSTYRVVSVLTVLHQDWLNGKEYKCKVSNKALPASIEKTISKAKGQPREPQVYTLPPSRDELTKNQVSLTCLVKGFYPSDIAVEWESNGQPENNYKTTPPVLDSDGSFFLYSKLTVDKSRWQQGNVFSCSVMHEALHNHYTQKSLSLSPGK
light: DIQMTQSPSSLSASVGDRVTITCRSSQSLVHSNRNTYLHWYQQKPGKAPKLLIYKVSNRFSGVPSRFSGSGSGTDFTLTISSLQPEDFATYFCSQSTHVPYTFGQGTKVEIKGGGGSGGGGSGGGGSDIQMTQSPSSLSASVGDRVTITCRASQDVYTAVAWYQQKPGKAPKLLINLASSRPTGVPSRFSGSGSGTDFTLTISSLQPEDFATYYCQQYYSTPPTFGGGTKVEIKRTVAAPSVFIFPPSDEQLKSGTASVVCLLNNFYPREAKVQWKVDNALQSGNSQESVTEQDSKDSTYSLSSTLTLSKADYEKHKVYACEVTHQGLSSPVTKSFNRGEC
notes: also called anti-HER2 biparatopic antibody 04BS-1123-ST06
no binding: FcγRIIIa (176F) | FcγRI | FcγRIIa (167H) | FcγRIIIa (176V) | [1] | [2] | [3]
